The record followed here is PMC3549669 (Science signaling, 2012).

Series [1] deals with the molecule itself. Put plainly: SEC. A general note: Size exclusion chromatography separates by hydrodynamic size, large species first.
The target of series [2] is T1, GST-TBK1 (human, UniProt Q9UHD2 1-729).
T1 sequence (looked up): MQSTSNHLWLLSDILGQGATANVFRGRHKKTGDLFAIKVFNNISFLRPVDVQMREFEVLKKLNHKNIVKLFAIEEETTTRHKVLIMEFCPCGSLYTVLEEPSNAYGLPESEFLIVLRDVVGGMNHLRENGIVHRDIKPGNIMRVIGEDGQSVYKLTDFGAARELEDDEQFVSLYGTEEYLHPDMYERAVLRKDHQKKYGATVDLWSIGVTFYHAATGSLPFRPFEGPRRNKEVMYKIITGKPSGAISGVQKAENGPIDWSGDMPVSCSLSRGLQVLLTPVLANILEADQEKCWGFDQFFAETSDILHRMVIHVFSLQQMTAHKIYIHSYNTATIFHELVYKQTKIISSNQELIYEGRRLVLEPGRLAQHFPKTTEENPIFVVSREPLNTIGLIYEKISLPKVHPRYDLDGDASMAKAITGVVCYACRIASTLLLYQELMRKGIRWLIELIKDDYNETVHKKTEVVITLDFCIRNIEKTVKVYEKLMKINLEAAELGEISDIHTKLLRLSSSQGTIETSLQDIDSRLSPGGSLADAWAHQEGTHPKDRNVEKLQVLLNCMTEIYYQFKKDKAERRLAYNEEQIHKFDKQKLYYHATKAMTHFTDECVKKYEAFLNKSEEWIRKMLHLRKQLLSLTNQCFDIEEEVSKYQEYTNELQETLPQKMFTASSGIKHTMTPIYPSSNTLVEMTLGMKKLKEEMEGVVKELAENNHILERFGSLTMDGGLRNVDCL
Nature of the series: pull-down.

The target in series [3] is T2, Flag-TBK1 (human, UniProt Q9UHD2 1-729).
T2 sequence (looked up): T1 sequence (looked up)
Put plainly: pull-down.

Consider VTVGSLKTSAVPSTSTMSQEPELLISGMEKPLPLRTDFS (domain or fragment, human, UniProt Q86WV6 341-379, looked up) [His6-STING (341–379)], for which the binding result in series [1] and in series [2] was “binds” each time.

VTVGSLKTSAVPSTSTMSQEPELLIAGMEKPLPLRTDFS (domain or fragment, human, UniProt Q86WV6 341-379, looked up) [His6-STING (341–379) S366A]: the binding result in series [1] is “binds”.

On to VTVGSLKTSAVPSTSTMAQEPELLISGMEKPLPLRTDFS (domain or fragment, human, UniProt Q86WV6 341-379, looked up) [GST-STING (341–379) S358A], for which the binding result in series [3] is “binds”.

As to VTVGSLKTSAVPSTSTMSQEPELLISGMEKPLPLRTDFS (domain or fragment, human, UniProt Q86WV6 341-379, looked up) [GST-STING (341–379)], the binding result in series [3] is “binds”.

VTVGSLKTSAVPSTSTMSQEPELLISGMEKPLPARTDFS (domain or fragment, human, UniProt Q86WV6 341-379, looked up) [GST-STING (341–379) L374A]: in series [3], the binding result is listed as “binds”.

In the case of VTVGSLKTSAVPSTSTMSQEPELLIAGMEKPLPLRTDFS (domain or fragment, human, UniProt Q86WV6 341-379, looked up) [GST-STING (341–379) S366A], the binding result in series [3] is given as “binds”.

As to VTVGSLKTSAVPSTSTMSQEPELLISGMEKPLPARTDFS (domain or fragment, human, UniProt Q86WV6 341-379, looked up) [His6-STING (341–379) L374A], the binding result in series [1] was “binds”.
